Literature values as cited in paper PMC10653114.

Key:
Asp8 = Asp8 (UniProt position 55, VINTFDGVADY); settings: 298 K; Conc. 0.0 (unit not given; Na+/Cl–)
Asp22 = Asp22 (UniProt position 69, YHKLPDNYITK); settings: 298 K; Conc. 0.0 (unit not given; Na+/Cl–)
Glu29 = Glu29 (UniProt position 76, YITKSEAQALG); settings: 298 K; Conc. 0.0 (unit not given; Na+/Cl–)
Glu73 = Glu73 (UniProt position 120, GRTWREADINY); settings: 298 K; Conc. 0.0 (unit not given; Na+/Cl–)
Asp86 = Asp86 (UniProt position 133, GFRNSDRILYS); settings: 298 K; Conc. 0.0 (unit not given; Na+/Cl–)
Asp54 = Asp54 (UniProt position 101, KSIGGDIFSNR); settings: 298 K; Conc. 0.0 (unit not given; Na+/Cl–)
Asp101 = Asp101 (UniProt position 148, IYKTTDHYQTF); settings: 298 K; Conc. 0.0 (unit not given; Na+/Cl–)
Glu60 = Glu60 (UniProt position 107, IFSNREGKLPG); settings: 298 K; Conc. 0.0 (unit not given; Na+/Cl–)
Asp75 = Asp75 (UniProt position 122, TWREADINYTS); settings: 298 K; Conc. 0.0 (unit not given; Na+/Cl–)
Asp12 = Asp12 (UniProt position 59, FDGVADYLQTY); settings: 298 K; Conc. 0.0 (unit not given; Na+/Cl–)
Asp93 = Asp93 (UniProt position 140, ILYSSDWLIYK); settings: 298 K; Conc. 0.0 (unit not given; Na+/Cl–)
Asp44 = Asp44 (UniProt position 91, KGNLADVAPGK); settings: 298 K; Conc. 0.0 (unit not given; Na+/Cl–)
Asp43 = Asp43 (UniProt position 417, WTLTFDFPSGQ); settings: 298 K; Conc. 0.10 (unit not given; K+/Cl–)
Asp39 = Asp39 (UniProt position 413, PVDGWDLTFSF); settings: 298 K; Conc. 0.10 (unit not given; K+/Cl–)
Lys94 = Lys94 (UniProt position 114, NGFSNKCSSL-); experiment: not stated (the title of ref 83 mentions NMR pH-dependent chemical shifts); settings: 313 K; Conc. 0.0 (unit not given; Na+/Cl–)
Asp72 = Asp72 (UniProt position 92, NPPNCDLTVPT); experiment: as above; settings: 313 K; Conc. 0.0 (unit not given; Na+/Cl–)
Asp30 = Asp30 (UniProt position 50, NQCSTDSGYSM); experiment: as above; settings: 313 K; Conc. 0.0 (unit not given; Na+/Cl–)
Lys61 = Lys61 (UniProt position 81, CNTMIKKIVTL); experiment: as above; settings: 313 K; Conc. 0.0 (unit not given; Na+/Cl–)
Asp21 = Asp21 (UniProt position 41, VSILSDASFNQ); experiment: as above; settings: 313 K; Conc. 0.0 (unit not given; Na+/Cl–)
Glu49 = Glu49 (UniProt position 84, NFKSAEDCMRT); experiment: NMR (only per the titles of cited refs 78 and 79; not given); settings: 308 K; Conc. 0.0 (unit not given; Na+/Cl– counter-ions in the simulation)
Asp3 = Asp3 (UniProt position 38, KAQRPDFCLEP); experiment: as above; settings: 308 K; Conc. 0.0 (unit not given; Na+/Cl– counter-ions in the simulation)
Lys41 = Lys41 (UniProt position 76, GGCRAKRNNFK); experiment: as above; settings: 308 K; Conc. 0.0 (unit not given; Na+/Cl– counter-ions in the simulation)
Asp50 = Asp50 (UniProt position 85, FKSAEDCMRTC); experiment: as above; settings: 308 K; Conc. 0.0 (unit not given; Na+/Cl– counter-ions in the simulation)
Lys46 = Lys46 (UniProt position 81, KRNNFKSAEDC); experiment: as above; settings: 308 K; Conc. 0.0 (unit not given; Na+/Cl– counter-ions in the simulation)
Lys26 = Lys26 (UniProt position 61, YFYNAKAGLCQ); experiment: as above; settings: 308 K; Conc. 0.0 (unit not given; Na+/Cl– counter-ions in the simulation)
Lys15 = Lys15 (UniProt position 50, YTGPCKARIIR); experiment: as above; settings: 308 K; Conc. 0.0 (unit not given; Na+/Cl– counter-ions in the simulation)
Glu7 = Glu7 (UniProt position 42, PDFCLEPPYTG); experiment: as above; settings: 308 K; Conc. 0.0 (unit not given; Na+/Cl– counter-ions in the simulation)

## Barnase (Bacillus amyloliquefaciens)
Asp8
  pKa: 3.1 ± 0.2
Asp22
  pKa: 3.3 ± 0.1
Glu29
  pKa: 3.75 ± 0.05
Glu73
  pKa: 2.1 ± 0.1
Asp86
  pKa: 4.2 ± 0.1
Asp54
  pKa: 2.2 ± 0.3
Asp101
  pKa: 2.0 ± 0.2
Glu60
  pKa: 3.4 ± 0.1
Asp75
  pKa: 3.1 ± 0.2
Asp12
  pKa: 3.6 ± 0.2
Asp93
  pKa: <2.0
Asp44
  pKa: 3.6 ± 0.1

## Highly charge-depleted protein (PDB 6QFS), S43D variant (Cellulomonas fimi (parent domain; not stated in the article); S43D (on the 6QFS charge-depleted background; background substitutions not stated))
Asp43
  pKa: 4.37 ± 0.01

## Highly charge-depleted protein (PDB 6QFS), S43D/T66H variant (Cellulomonas fimi (parent domain; not stated in the article); S43D;T66H (on the 6QFS charge-depleted background; background substitutions not stated))
Asp43
  pKa: 4.32 ± 0.02

## Highly charge-depleted protein (PDB 6QFS), T39D variant (Cellulomonas fimi (parent domain; not stated in the article); T39D (on the 6QFS charge-depleted background; background substitutions not stated))
Asp39
  pKa: 5

## Beta-cryptogein (beta-elicitin) (Phytophthora cryptogea)
Lys94
  pKa: 9.4
Asp72
  pKa: 2.61 ± 0.15
Asp30
  pKa: 2.51 ± 0.09
Lys61
  pKa: 10.1
Asp21
  pKa: 2.49 ± 0.05

## Highly charge-depleted protein (PDB 6QFS), T39D/T66H variant (Cellulomonas fimi (parent domain; not stated in the article); T39D;T66H (on the 6QFS charge-depleted background; background substitutions not stated))
Asp39
  pKa: 4.07 ± 0.02

## Bovine pancreatic trypsin inhibitor (BPTI) (Bos taurus)
Glu49
  pKa: 3.75 ± 0.05
Asp3
  pKa: 3.25 ± 0.15
Lys41
  pKa: 11.20
Asp50
  pKa: 3.20 ± 0.20
Lys46
  pKa: 10.30
Lys26
  pKa: 10.60
Lys15
  pKa: 10.60
Glu7
  pKa: 3.65 ± 0.05
